Results as given in patent US20220096649A1.

Key:
[1] = target: SIRP-α mouse NOD (mouse (NOD)) (UniProt P97797); experiment: SPR, antibody on GLC chip, SIRP as analyte
[2] = target: SIRP-α mouse BALBc (mouse (BALBc)) (UniProt P97797); experiment: SPR, antibody on GLC chip, SIRP as analyte
SIRP-α human v1 (human) = SIRP-α human v1 (human) (UniProt P78324); experiment: SPR, antibody on GLC chip, SIRP as analyte
[3] = target: SIRP-α mouse BALBc (mouse (BALBc)) (UniProt P97797); experiment: SPR, antibody on GLC chip, SIRP as analyte; Mouse BALBc SIRP-α allele
[4] = target: SIRP-α mouse NOD (mouse (NOD)) (UniProt P97797); experiment: SPR, antibody on GLC chip, SIRP as analyte; Mouse NOD SIRP-α allele

Sequence of SIRP-α human v1 (human) (P78324 31-149): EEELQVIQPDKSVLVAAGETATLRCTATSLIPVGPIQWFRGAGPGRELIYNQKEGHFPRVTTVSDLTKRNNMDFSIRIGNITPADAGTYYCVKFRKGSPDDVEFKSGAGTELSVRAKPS

Binder | Kd [1] [pM] | Kd [2] [pM] | Kd (SIRP-α human v1 (human)) [pM] | Kd [3] [pM] | Kd [4] [pM]
Hum9/AB21_HC_Mutall (antibody, V domains shown) VH: EVQLVESGGGVVQPGGSLRLSCAASGFTFSSNAMSWVRQAPGKGLEWVAGISAGGSDTYYPASVKGRFTISRDNSKNTLYLQMNSLRAEDTAVYYCARETWNHLFDYWGQGTLVTVSS VL: SYELTQPPSVSVSPGQTARITCSGGAYSSYYYAWYQQKPGQAPVLVIYSDDKRPSGIPERFSGSSSGTTVTLTISGVQAEDEADYYCGGYDQSSYTNPFGGGTKLTVL |  |  | 12 | 140000 | 24000
Hum8/AB21_HC_Mutall (antibody, V domains shown) VH: EVQLVESGGGVVQPGGSLRLSCAASGFTFSSNAMSWVRQAPGKGLEWVAGISAGGSDTYYPASVKGRFTISRDNSKNTLYLQMNSLRAEDTAVYYCARETWNHLFDYWGQGTLVTVSS VL: SYELTQPPSVSVSPGQTARITCSGGAYSSYYYAWYQQKPGQAPVLVIYSDSKRPSGIPERFSGSSSGTTVTLTISGVQAEDEADYYCGGYDQSSYTNPFGGGTKLTVL |  |  | 20 | 71000 | 28000
Anti-SIRP-α antibody 119, light chain wt, heavy chain wt (antibody, V domains shown) VH: EVQLLESGGGVVQPGGSLRLSCAASGFSFSNFAMTWVRQAPGEGLEWVSTIGSGDTYYADSVKGRFTISRDNSKNTLYLQMNSLRAEDTAVYYCAKDSTVSWSGDFFDYWGLGTLVTVSS VL: EIVLTQSPATLSVSPGERATFSCRASQNVKNDLAWYQQRPGQAPRLLIYAARIRETGIPERFSGSGSGTEFTLTITSLQSEDFAVYYCQQYYDWPPFTFGGGTKVEIK |  |  | 180 |  | 
Anti-SIRP-α antibody 119, light chain Mut, heavy chain wt (antibody, V domains shown) VH: EVQLLESGGGVVQPGGSLRLSCAASGFSFSNFAMTWVRQAPGEGLEWVSTIGSGDTYYADSVKGRFTISRDNSKNTLYLQMNSLRAEDTAVYYCAKDSTVSWSGDFFDYWGLGTLVTVSS VL: EIVLTQSPATLSVSPGERATLSCRASQNVKNDLAWYQQKPGQAPRLLIYAARIRETGIPARFSGSGSGTEFTLTISSLQSEDFAVYYCQQYYDWPPFTFGGGTKVEIK |  |  | 210 |  | 
Anti-SIRP-α antibody 135, light chain wt, heavy chain Mut_V34M (antibody, V domains shown) VH: EVQLVESGGGVVQPGGSLRLSCAASGFSFSIYAMSWVRQAPGKGLEWVSTIGADDTYYADSVKGRFTISRDNSKNTLYLQMNSLRAEDTAVYYCAKDSTVGWSGDFFDYWGQGTLVTVSS VL: EIVLTQSPATLSVSPGERVTFSCRASQNVRSDIAWYQQKPGQAPRLLIYAASSRDTGIPDRFSGSGSGTDFTLTISSLQSEDFGVYYCQQYYDWPPFTFGGGTKVEIK |  |  | 150 |  | 
Anti-SIRP-α antibody 119, light chain wt, heavy chain Mut (antibody, V domains shown) VH: EVQLLESGGGVVQPGGSLRLSCAASGFSFSNFAVTWVRQAPGKGLEWVSTIGSGDTYYADSVKGRFTISRDNSKNTLYLQMNSLRAEDTAVYYCAKDSTVSWSGDFFDYWGQGTLVTVSS VL: EIVLTQSPATLSVSPGERATFSCRASQNVKNDLAWYQQRPGQAPRLLIYAARIRETGIPERFSGSGSGTEFTLTITSLQSEDFAVYYCQQYYDWPPFTFGGGTKVEIK |  |  | 250 |  | 
Anti-SIRP-α antibody 119, light chain Mut, heavy chain Mut (antibody, V domains shown) VH: EVQLLESGGGVVQPGGSLRLSCAASGFSFSNFAVTWVRQAPGKGLEWVSTIGSGDTYYADSVKGRFTISRDNSKNTLYLQMNSLRAEDTAVYYCAKDSTVSWSGDFFDYWGQGTLVTVSS VL: EIVLTQSPATLSVSPGERATLSCRASQNVKNDLAWYQQKPGQAPRLLIYAARIRETGIPARFSGSGSGTEFTLTISSLQSEDFAVYYCQQYYDWPPFTFGGGTKVEIK |  |  | 320 |  | 
Anti-SIRP-α antibody 135, light chain wt, heavy chain Mut (antibody, V domains shown) VH: EVQLVESGGGVVQPGGSLRLSCAASGFSFSIYAVSWVRQAPGKGLEWVSTIGADDTYYADSVKGRFTISRDNSKNTLYLQMNSLRAEDTAVYYCAKDSTVGWSGDFFDYWGQGTLVTVSS VL: EIVLTQSPATLSVSPGERVTFSCRASQNVRSDIAWYQQKPGQAPRLLIYAASSRDTGIPDRFSGSGSGTDFTLTISSLQSEDFGVYYCQQYYDWPPFTFGGGTKVEIK |  |  | 180 |  | 
Anti-SIRP-α antibody 136, light chain Mut_Q38E, heavy chain Mut (antibody, V domains shown) VH: EVQLVESGGGVVQPGRSLRLSCAASGFTFSSYDVNWVRQAPGKGLEWVSLISGSGEIIYYADSVKGRFTISRDNSKNTLYLQMNSLRAEDTAVYYCAKENNRYRFFDDWGQGTLVTVSS VL: EIVLTQSPGTLSLSPGERATLSCRASQSVYTYLAWYQEKPGQAPRLLIYGASSRATGIPDRFSGSGSGTEFTLTISSLQSEDFAVYYCQQYYDRPPLTFGGGTKVEIK | 6000 | 3000 | 6200 |  | 
Anti-SIRP-α antibody 136, light chain Mut_S12T, heavy chain Mut (antibody, V domains shown) VH: EVQLVESGGGVVQPGRSLRLSCAASGFTFSSYDVNWVRQAPGKGLEWVSLISGSGEIIYYADSVKGRFTISRDNSKNTLYLQMNSLRAEDTAVYYCAKENNRYRFFDDWGQGTLVTVSS VL: EIVLTQSPGTLTLSPGERATLSCRASQSVYTYLAWYQQKPGQAPRLLIYGASSRATGIPDRFSGSGSGTEFTLTISSLQSEDFAVYYCQQYYDRPPLTFGGGTKVEIK | 2900 | 2100 | 4900 |  | 
Anti-SIRP-α antibody 136, light chain Mut, heavy chain Mut (antibody, V domains shown) VH: EVQLVESGGGVVQPGRSLRLSCAASGFTFSSYDVNWVRQAPGKGLEWVSLISGSGEIIYYADSVKGRFTISRDNSKNTLYLQMNSLRAEDTAVYYCAKENNRYRFFDDWGQGTLVTVSS VL: EIVLTQSPGTLSLSPGERATLSCRASQSVYTYLAWYQQKPGQAPRLLIYGASSRATGIPDRFSGSGSGTEFTLTISSLQSEDFAVYYCQQYYDRPPLTFGGGTKVEIK | 5200 | 3100 | 7300 |  | 
Anti-SIRP-α antibody 136, light chain Mut_I2T, heavy chain Mut_V34M (antibody, V domains shown) VH: EVQLVESGGGVVQPGRSLRLSCAASGFTFSSYDMNWVRQAPGKGLEWVSLISGSGEIIYYADSVKGRFTISRDNSKNTLYLQMNSLRAEDTAVYYCAKENNRYRFFDDWGQGTLVTVSS VL: ETVLTQSPGTLSLSPGERATLSCRASQSVYTYLAWYQQKPGQAPRLLIYGASSRATGIPDRFSGSGSGTEFTLTISSLQSEDFAVYYCQQYYDRPPLTFGGGTKVEIK | 600 | 360 | 550 |  | 
Anti-SIRP-α antibody 136, light chain wt, heavy chain Mut (antibody, V domains shown) VH: EVQLVESGGGVVQPGRSLRLSCAASGFTFSSYDVNWVRQAPGKGLEWVSLISGSGEIIYYADSVKGRFTISRDNSKNTLYLQMNSLRAEDTAVYYCAKENNRYRFFDDWGQGTLVTVSS VL: ETVLTQSPGTLTLSPGERATLTCRASQSVYTYLAWYQEKPGQAPRLLIYGASSRATGIPDRFSGSGSGTEFTLTISSLQSEDFAVYYCQQYYDRPPLTFGGGTKVEIK | 680 | 420 | 560 |  | 
Anti-SIRP-α antibody 136, light chain Mut_I2T, heavy chain Mut (antibody, V domains shown) VH: EVQLVESGGGVVQPGRSLRLSCAASGFTFSSYDVNWVRQAPGKGLEWVSLISGSGEIIYYADSVKGRFTISRDNSKNTLYLQMNSLRAEDTAVYYCAKENNRYRFFDDWGQGTLVTVSS VL: ETVLTQSPGTLSLSPGERATLSCRASQSVYTYLAWYQQKPGQAPRLLIYGASSRATGIPDRFSGSGSGTEFTLTISSLQSEDFAVYYCQQYYDRPPLTFGGGTKVEIK | 680 | 420 | 720 |  | 

Now from value to binder:

Kd [1] [pM] | Kd [2] [pM] | Kd (SIRP-α human v1 (human)) [pM] | Kd [3] [pM] | Kd [4] [pM] | Binder
3700 | 7900 | 5.3 |  |  | Hum1/AB21_HC_Mutall (antibody, V domains shown) VH: EVQLVESGGGVVQPGGSLRLSCAASGFTFSSNAMSWVRQAPGKGLEWVAGISAGGSDTYYPASVKGRFTISRDNSKNTLYLQMNSLRAEDTAVYYCARETWNHLFDYWGQGTLVTVSS VL: SYELTQPPSVSVSPGQTARITCSGGSYSSYYYAWYQQKPGQAPVTLIYSDDKRPSNIPERFSGSSSGTTVTLTISGVQAEDEADYYCGGYDQSSYTNPFGGGTKLTVL
 |  | 220 |  |  | Anti-SIRP-α antibody 119, light chain Mut, heavy chain Mut_V34M (antibody, V domains shown) VH: EVQLLESGGGVVQPGGSLRLSCAASGFSFSNFAMTWVRQAPGKGLEWVSTIGSGDTYYADSVKGRFTISRDNSKNTLYLQMNSLRAEDTAVYYCAKDSTVSWSGDFFDYWGQGTLVTVSS VL: EIVLTQSPATLSVSPGERATLSCRASQNVKNDLAWYQQKPGQAPRLLIYAARIRETGIPARFSGSGSGTEFTLTISSLQSEDFAVYYCQQYYDWPPFTFGGGTKVEIK
 |  | 150 |  |  | Anti-SIRP-α antibody 135, light chain wt, heavy chain wt (antibody, V domains shown) VH: DVQLVESGGGVVRPGESLRLSCAASGFSFSIYAMSWVRQAPGEGLEWVSTIGADDTYYADSVKGRFTISRDNSKNTLYLQMNSLRAEDTAVYYCAKDSTVGWSGDFFDYWGLGTLVTVSS VL: EIVLTQSPATLSVSPGERVTFSCRASQNVRSDIAWYQQKPGQAPRLLIYAASSRDTGIPDRFSGSGSGTDFTLTISSLQSEDFGVYYCQQYYDWPPFTFGGGTKVEIK
 |  | 150 |  |  | Anti-SIRP-α antibody 135, light chain Mut, heavy chain wt (antibody, V domains shown) VH: DVQLVESGGGVVRPGESLRLSCAASGFSFSIYAMSWVRQAPGEGLEWVSTIGADDTYYADSVKGRFTISRDNSKNTLYLQMNSLRAEDTAVYYCAKDSTVGWSGDFFDYWGLGTLVTVSS VL: EIVLTQSPATLSVSPGERVTLSCRASQNVRSDIAWYQQKPGQAPRLLIYAASSRDTGIPARFSGSGSGTDFTLTISSLQSEDFGVYYCQQYYDWPPFTFGGGTKVEIK
 |  | 190 |  |  | Anti-SIRP-α antibody 135, light chain Mut, heavy chain Mut (antibody, V domains shown) VH: EVQLVESGGGVVQPGGSLRLSCAASGFSFSIYAVSWVRQAPGKGLEWVSTIGADDTYYADSVKGRFTISRDNSKNTLYLQMNSLRAEDTAVYYCAKDSTVGWSGDFFDYWGQGTLVTVSS VL: EIVLTQSPATLSVSPGERVTLSCRASQNVRSDIAWYQQKPGQAPRLLIYAASSRDTGIPARFSGSGSGTDFTLTISSLQSEDFGVYYCQQYYDWPPFTFGGGTKVEIK
2400 | 1600 | 5000 |  |  | Anti-SIRP-α antibody 136, light chain Mut_S22T, heavy chain Mut (antibody, V domains shown) VH: EVQLVESGGGVVQPGRSLRLSCAASGFTFSSYDVNWVRQAPGKGLEWVSLISGSGEIIYYADSVKGRFTISRDNSKNTLYLQMNSLRAEDTAVYYCAKENNRYRFFDDWGQGTLVTVSS VL: EIVLTQSPGTLSLSPGERATLTCRASQSVYTYLAWYQQKPGQAPRLLIYGASSRATGIPDRFSGSGSGTEFTLTISSLQSEDFAVYYCQQYYDRPPLTFGGGTKVEIK
